Results as given in the DeepSol protein solubility set.

Assay: soluble on expression in E. coli; label from the status in PepcDB or PDB records

| Sequence | soluble on expression in E. coli |
| --- | --- |
| MNKEALVNRLNASAKRQKADIVIKNGKIMDVYNQEWIYEDIAITDGVIVGLGEYEGENIIDAEGQMIVPGFIDGHVHIESSMVTPIEFAKAVLPHGVTTVVTDPHEIANVSGEKGIEFMLEQARHTPLNIHFMLPSSVPAASFERSGAILKAADLKPFYEEEEVLGLAEVMDYVSVQQAEKDMVQKLLDARVAGKRIDGHLAGLSTDLINIYRTAFVLNDHEVTSKEEALDRIRRGMYVMMREGSVAKNTLNVLPAVNEKNRTPVFFCTDDKHVDDLLSEGSVNHQVKMAIQAGLNPFLAYQLGSLNAAECYGLDTKGAIAPGFDADLLFVSDLENVTVTMTMVKGQTVAEDSKAVYQDHASTAAPDQALLDSVKLAAPLNKQDFHMPIDSEQQINVIQIIPNQLETRLVQVPAPVAREFEPDTELDLLKIAVVERHKGLKETGLGVVKGFGFKSGAIATTISHDSHNIIAVGTNDEDIAAAVNKLQEIGGGLTIIKNGEELHSVPLPIAGLLSDQSAEQVNQSLLTLHDKLSLIGFTGGFNPFLTLSFLALPVIPDIKMTTTGLFDVKSFQHISLQ | not soluble |
| SELFTLGACRQVGKSCFVLKTSEGLVMLDCGLHPSYQDDRRYPNFSLAFSYGPLKAVFITHCHADHVGALPILTERWGYDGPIYMSEPTRKLSYYILEECVGSWGGDDEWTDSSRSEWSYTQREVESCLTKCIVGWLDMCWVLTCLASS | soluble |
| MGSDKIHHHHHHMEIGIIGTGNIGGTLARKLIAAGHQVRVANSKGIHGVQSFADEIGATAVDVYGAVKGADAIILSIPLPALASLPNGFFDDLPETVPLIDTSNYYPGLRDPLIPEIDDGMTESVWVSQQLSHPVIKAFNNILAWSLAELGTPKGSASRLAIAVAGDNATLKQIVMNLVDDTGFDAIDAGSLEESWRQQPSTPAYCCDYDAETMKKGLTAAVRGEAASKRDRLPELFGKLGANPTHEDIVAMNRSLNP | not soluble |
| SLHELSLCQSAVEIIQRQAEQHDVKRVTAVWLEIGALSCVEESAVRFSFEIVCHGTVAQGCDLHIVYKPAQAWCWDCSQVVEVHQHDAQCPLCHGERLRVDTGDSLIVKSIEVE | soluble |
| MGSDKIHHHHHHAKSEMAFAGKGEISPRAITMWDFSWLERRWPGAGYEDWDQVLDELSERGYNAIRIDAYPHLIAENPMKKWLLKEVWNQQDWGSPDMNEVQVQPNLNLFLSKCKERDIKVGLSSWYRLDVDEVCLKLDTPEKLADCWLTILRSIEEDGLLDTILYVDLCNEWPGDSWAPFFAKTYPNVGWGNWYKEESLRWMKTSLEKMRQVYPDMPFLYSFDHGDVKKYEEVDCSFLDLYEHHIWMAQQNGGEFYKLVGYGYNRFLPDDYKNVVKNAERVYRERPGYWQKLLTDKIELMASVARKNRRPLVTTECWGLVDYKDWPLLKWDWVKDLCELGTITAARTGMWVGVATSNFCGPQFAGMWRDVEWHKRLTSIIRSSPLDESLTKNNEVAAKLLKRL | not soluble |
| FHSVLIANVNSGLGELASDADLTQVKGKTLTFGSESSTSGRLMPQYYLEQAGVSLEDFQGEVGFSASHDATIQLVEAGTYDLGMLNEQVWNSRVEAGEVDTNRVNVIWRSPAYYDYHWVISPDVDERYGEG | not soluble |
| THGWNFQVSANAAYNKNEVMDLKNGGARIWSGKYFNQEGYAINSIGGYIAEGLFKTEEEVANSATIPGTDTAPGDIKYRDINNDGKIDGEDRVYIGNTMPKWTFGLNLFAEWKGLDATFLFQGAADVQGYLAGPGVVGEMIGAKGKPSYMYRDCWDAETNPNGKFPRAFSSYRQNNSIYNPSSFWIVNSSYLRLKNFQLGYTLPKEWCNMMGISRIRVYYSGQNLLTFTKFDKGFDPESPEGGSSYPQVKTNTFGLNITF | not soluble |
| MRGPAPMPDTSLSTFLARPAPTILVEIEAVKGSSPREAGTFMLVSQEALWETIGGGQFEYMAIDHARAMLRTGAAEDRMDIPLGPEIGQCCGGRTLIRFRLITAEIAATLEARLKGEAEQQPAVFIFGAGHVGKALADALSLLPLTLKVVETRESELRDIPAGIASILTPMPEAFVQKIPANGAAIIVTHDHALDFLIAKEALARDDLAYVGMIGSKTKRATFAHWLEREGEPPSRLAKLTLPIGGTGVRDKRPAVIAALVAAELLQAFSVAETRRSENRHDHPQGQDRA | not soluble |
| MSLAAGVLPQNEQPYSTLVNNSECVANMKGNLERPTPKYTKVGERLRHVIPGHMACSMACGGRACKYENPARWSEQEQAIKGVYSSWVTDNILAMARPSSELLEKYHIIDQFLSHGIKTIINLQRPGEHASCGNPLEQESGFTYLPEAFMEAGIYFYNFGWKDYGVASLTTILDMVKVMTFALQEGKVAIHCHAGLGRTGVLIACYLVFATRMTADQAIIFVRAKRPNSIQTRGQLLCVREFTQFLTPLRNIFSCCDPKAHAVTLPQYLIRQRHLLHGYEARLLKHVPKIIHLVCKLLLDLAEEGHHHHHH | not soluble |
| GSHMLEDPLRVSPMIREFVQSIDDREWQTQLFALLQKQTYNQVEVDLFELMCKVLDQNLFSQVDWARNTVFFKDLKVDDQMKLLQHSWSDMLVLDHLHHRIHNGLPDETQLNNGQVFNLMSLGLLGVPQLGDYFNELQNKLQDLKFDMGDYVCMKFLILLNPSVRGIVNRKTVSEGHDNVQAALLDYTLTCYPSVNDKFRGLVNILPEIHAMAVRGEDHLYTKHCAGSAPTQTLLMEMLHAKR | soluble |
| LNKELQHERLAYITDSELIIFADFLPTEFVDEYLIDQSEESVAHIQQALSYEDNKVGRYAEPHFLVANPKNSVGGIKTELLKRGQSPVRLIIVRDVGGVIGTIEPQILLLHENHTKLTDLTVVTPILEDIQTIQSVSKQVSIDGGAHWFPIMAGGKIMGVLSMATIAITLRELSLQAVVAENVRSEEDLFTPLTVATRLRAL | not soluble |
| MSLKLYYMPAACSLSPHIVANELELDIEFVRVNFKDHKTEGGQDYYDINPNGYIPALDVGNGAMLFEGPAIVQYMADLKPQSGLAPANGTFERYKLQEMLSFLSTEIHKGFIPLLYAKQAGAYLETATPKLEKRYAWIDNLLASQRFLMGENFTVADAYLFALTSWGQASWLKSYYGADIHFDDLLNLRGWYERVKERDAVKQSILEEGLSLSEGHHHHHH | soluble |
| MGHHHHHHSHRSQPVHILAVRRLQEEDQQFRTSSLPAIPNPFPELCGPGSPPVLTPGSLPPSQAAAKQDVKVFSEDGTSKVVEILADMTARDLCQLLVYKSHCVDDNSWTLVEHHPHLGLERCLEDHELVVQVESTMASESKFLFRKNYAKYEFF | not soluble |
| MRYEEPVFRPPSEAFSLIVQATIGCSWNRCTFCGMYKMKKFRVRDIEEVKEDFRLAKEIYGDVRRVFLADGNALAADTDYLLEIADYANKLFNLERISCYATPQDILEKSKEELKEIRNAGIKLLYVGIESGDDEILERIRKGVSSNEIAEACMKAHECGFELSVTVLTGIGGKERSYKNARNTARLLNRISPKYTGVLTYIPVPNTPLYVKIKRGEFLLPNPLENLLELRWMVERIEARTIFRCNHASNYLPLKGTLPEDREKLLKAIDYAIAHPEVLKPEWLRGL | not soluble |
| MSSVVVVGTQWGDEGKGKITDFLSEHAEVVARYQGGNNAGHTIVFGGVKYKLHLIPSGIFYKEKICVIGNGLVVDPKALLEELKYLHDRGVSTDNLRVSNRAHVILPYHLKQDELEEASKGDNKIGTTKKGIGPAYMDKAARIGIRMADLLDREAFKEKLEQNLAQKNRLFEKMYDTEGFSVDEIFEEYFEYGQQIAQYVCDTSVVLNDALDNNHRVLFEGAQGVMLDIDHGTYPFVTSSNPIAGGVTVGTGVGPAKVTRVVGVCKAYTSRVGDGPFPTELHDEIGHQIREVGREYGTTTGRPRRVGWFDSVVVRHARRVSGLTDLSLNSIDVLTGIPTLKICVAYKCDGKVIDEVPANLNILAKCEPVYEELPGWTEDITGVRSLDELPENARKYVERVSELTGIQLSMFSVGPDRNQTNIVRNVYEA | not soluble |
| MAKHEQILVLDPPSDLKFKGPFTDVVTTNLKLQNPSDRKVCFKVKTTAPRRYCVRPNSGIIDPGSIVTVSVMLQPFDYDPNEKSKHKFMVQTIFAPPNISDMEAVWKEAKPDELMDSKLRCVFEMPNENDKLND | soluble |
| QTIRSASDIRDVFINAGIKGEEYDAAWNSFVVKSLVAQQEKAAADVQLRGVPAMFVNGKYQLNPQGMDTSNMDVFVQQYADTVKYLSEKKGGGTGAQYEDGKQYTTLEKPVAGAPQVLEFFSFFCPHCYQFEEVLHISDNVKKKLPEGVKMTKYHVNFMGGDLGKDLTQAWAVAMALGVEDKVTVPLFEGVQKTLIK | soluble |
| MGSDKIHHHHHHMVTYVIQGILKEEEDRMVRRSFLIKGNEIAYVNGRLDKLTFIRMNGDQFCMAPGRVMNNDELETNLSISSFKKTLTSMIEKGCTSVVYFASANYERQLPFVIKQAYHRMNNSFIDYVIGLSLPAHLLRPSVLRFCKKEKIPVLRFSLQSIDDLYDVPWSRLQDVLYSYPIVLLPNMNELLEGERKLAEDLWVSLCEAHRIYGTTHPPNSLEAWPKTLLKLVGLYPKKGELRVGGDADYLLYYVARTNATLAETCDLDYDRDKPNVVVLRGSVLKANEVTSIRPGGGRRIRITRPGQFIPVSEASHWGM | not soluble |
| MEWIERLNKAMSYIEEHITEEIDFEQTAKIACCSAYHFQRMFTYMAGIPLSEYIRRRRMTLAAVELQSSDEKVIDIALKYGYASPTAFNRAFQSVQGITPSAAKKKGTPVKSYPPLSFAITIKGVEGMNYRIEEKEAFRIIGIAQSMSKNLEENFAVVPQMWGKAAADGTIQKLASMIEGQPAGLLGVSICNNEEDWRYFIAVSGTRPAEAPFEEYRVPASTWAVFPGTGTNLSVQDLERRIVTEWLPTSGYEYGSAPDIEVYISPNPENAKYEVWIPVVKKQ | not soluble |
| MSTSGSGGGNTPDLSKENVASSPNANPKKNADTESSGGSKNNRQRRRSNTKGDGSNSRNGSRTNSVSNSKNQSNRKDWTDRKSFSQGGINVKSKSPGDDHKRTRSSNSQSAKRNARDSTRTMSQASNGEGLDYSDEYELDEPFSDSDDEDSRPKKPEKMSLTVARGRIRTLSGTVPVVGYSPRWGGPTMCVSCLEFFDLPEQISGFADHLLKEHKIVVSEMNLIVDPKRYIEHWRQRFAKESIDKIFPRIEPSEGDSYFGETDYYYLMSENVAEDRSLRQRLAMRRLEEALQCQQREREDTSFQLQCIFCRYNARGNRSKIIHHLYMIHHLNLGSPDNLVFVTEYIEHLKEKLHRNECIYCEKIFPDRNTLMDHMRKRNHREVNPKNHYYDKFYIINYLELGKRWLDVLAEDFEDTMPTFQDSDEEEEDNEWCEWQEDNLDADETRVVCLLCDASEDNAQSLLEHMKTTHEFDLLKNVSDDKLNSYQRLRLINYIRKQNYHADCWVCQKTEFENPLALQKHILEHKPLSHLPDASIWDTEENLVPIFGNDHFLWMLESILEENEITCSSDDEGESEERFSKLVLESKSNTVEGVIAEDLPELSELNEDDLNALM | not soluble |
| MNAITPTPGIDKEAFDRAANAVRRLCGWHIFPIIEETITLDSPGDSLLVLPTKHLVEIINVTIDGTTYPLSDFRSSPDGLLVKRHGRFPRGIAMVTVTMKHGYEKPTEILGVINDMARRANESNLTQLNVGGISVGATNSATPQSSEWRIVDELRLGPLP | not soluble |
| NKDMEFTLRANFTYSTNKVNYYEEGDTKYEYTSATGRPNGYMKGYIALGLFKDQEEINNSPKQDFGSYLPGDIKYKDVNGDGVVNSDDQVPVSYQDYPRLMYGFGGEFRWKKLTLGVRFSGIGNTDYYKIWTWGSNNVGYIPFYDGKLGNVLTIAANPANRWIPADYDDPSIPASMRENPNAMFPRLSYGSNQNNAQASTFWKGNRKYLRLDEISLNYNCNCNLLKSIGINSIDLAVVANDLHTWDSVKLFDPELATSNGRAYPIPGRVSFQAIVHF | not soluble |
